What was measured:
[1] = target: T1, purified CEA (carcinoembryonic antigen) (UniProt P06731 35-685, limits assumed); test: ELISA, CEA coated at 1 ug/ml, CEA-scTsAb diluted from 10 ug/ml, detected by anti-c-myc antibody
T1 construct: Bought antigen; also called purified CEA (Fitzerald, German); purified CEA(R&D)
T1 sequence (looked up): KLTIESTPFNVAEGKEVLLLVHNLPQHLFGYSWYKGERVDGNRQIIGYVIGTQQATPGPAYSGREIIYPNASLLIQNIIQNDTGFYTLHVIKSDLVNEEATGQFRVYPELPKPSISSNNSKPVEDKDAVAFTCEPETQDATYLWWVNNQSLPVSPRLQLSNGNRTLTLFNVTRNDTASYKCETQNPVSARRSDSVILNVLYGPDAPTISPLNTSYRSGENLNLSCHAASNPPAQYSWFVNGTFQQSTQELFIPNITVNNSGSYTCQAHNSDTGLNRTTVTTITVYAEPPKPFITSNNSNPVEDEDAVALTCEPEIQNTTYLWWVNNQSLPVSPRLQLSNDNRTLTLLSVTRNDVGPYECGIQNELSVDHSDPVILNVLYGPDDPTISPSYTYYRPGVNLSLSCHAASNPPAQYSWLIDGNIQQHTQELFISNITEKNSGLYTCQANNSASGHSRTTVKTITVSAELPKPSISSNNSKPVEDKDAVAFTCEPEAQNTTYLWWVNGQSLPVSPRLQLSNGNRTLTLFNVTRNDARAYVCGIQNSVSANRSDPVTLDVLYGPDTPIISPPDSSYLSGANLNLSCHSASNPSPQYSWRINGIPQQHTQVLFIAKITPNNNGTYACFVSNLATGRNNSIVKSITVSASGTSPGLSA

rhCD28-FC chimera (R&D) = target: T2, rhCD28-FC chimera (R&D) (human (printed as 'rh'), UniProt P10747 19-152); test: ELISA, rhCD28-FC chimera coated at 1 ug/ml, CEA-scTsAb diluted from 10 ug/ml, detected by anti-c-myc antibody
T2 construct: Bought from R&D; Fc part of the bought chimera not given
T2 sequence (P10747 19-152, change not shown): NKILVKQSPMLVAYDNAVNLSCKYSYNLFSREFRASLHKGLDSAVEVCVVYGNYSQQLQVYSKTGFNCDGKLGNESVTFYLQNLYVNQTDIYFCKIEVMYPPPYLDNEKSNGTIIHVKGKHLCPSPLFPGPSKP

B1: recombinant anti-CEA/CD3/CD28 single-chain tri-specific antibody CEA-scTsAb (other)
chain: MGLEQVQLQQSGAELMKPGASVKISCKATGYTFSDYWIEWVKQRPGHGLEWIGEILPGSGRTDYNERFKGKATFTGDVSSNTAYMKLSSLTSEDSAVYYCATGTTPFGYWGQGTLVTVSATSTPSHNSHQVPSAGGPTANSGSRDIVLTQSPASLAVSLGQRATISCRASQSVSTSSYTYMHWYQQKPGQPPKLLIKYASNLESGVPARFSGSGSGTDFTLNIHPVEEEDTAYYYCQHSWEIPRTFGGGTKLEIKEFNSTYRVVSVLTVLHQDWLNGKEYKCKSTEVKLVESGPELVKPGASMKISCKASGYSFTGYTMNWVKQSHGKNLEWMGLINPYKGVSTYNQKFKDKATLTVDKSSSTAYMELLSLTSEDSAVYYCARSGYYGDSDWYFDVWGAGTSVTVSSTSGGGGSGGGGSGGGGSSRDIQMTQTTSSLSASLGDRVTISCRASQDIRNYLNWYQQKPDGTVKLLIYYTSRLHSGVPSKFSGSGSGTDYSLTISNLEQEDIATYFCQQGNTLPWTFAGGTKLELKRAVDFQNALLVRYTKKVPQVSTPTPVEVSHMQVQLQESGPGLVKPSQTLSLTCTVSGFSLSDYGVHWVRQPPGKGLECLGVIWGGGTNYNSALMSRRVTSSDDTSKNQFSLKLSSVDTAVYYCARSYYYSMDYWGQGTLVTVSSGTEQKLISEEDLNGAAHHHHHHEQ
notes: Single linear tri-specific antibody expressed solubly in the E. coli cytoplasm and purified by DEAE flow-through to about 70-75% purity; also called anti-CEA/CD3/CD28 scTsAb
Which results are given for B1?
binding result [1]: binds; binding result (rhCD28-FC chimera (R&D)): binds
